Background-corrected fluorescence data for 29 sequences are collected here from the supplement of paper PMC9428881.

± gives the standard error.

The data set can be described thus: background-corrected fluorescence of 3'-dye-labeled ssDNA relative to brightest sequence (3'-GCGCG) (fraction); higher = brighter dye fluorescence (less quenching). The method in brief:
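Light-directed phosphoramidite synthesis on glass slides produced single-stranded DNA carrying a 3' Cy3 or Cy5 dye next to each of 1024 permuted pentamers. After a 2 h acetonitrile wash at r.t., arrays were scanned at 532 or 635 nm both before and after overnight deprotection in ethylenediamine/ethanol. Every value is the mean of 10 features per array over at least 3 syntheses. Fluorescence had unlabeled-oligo background subtracted and was scaled to the brightest sequence.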

On to “TTTTTTCATCATCATCATGCTTTTTTTTTTTTTTTGGGGA [AGGGG]”, for which the background-corrected fluorescence came to 0.753 ± 0.014 (dye: Cy3 (3' terminal)) and 0.757 ± 0.038 (dye: Cy5 (3' terminal)).
“TTTTTTCATCATCATGAGCATTTTTTTTTTTTTTTGGGCT [TCGGG]”: the background-corrected fluorescence runs as follows: (dye: Cy3 (3' terminal)) 0.527 ± 0.017; (dye: Cy5 (3' terminal)) 0.442 ± 0.024.
For “TTTTTTCATCATCATGATCATTTTTTTTTTTTTTTGGGCG [GCGGG]”, the background-corrected fluorescence is, setting by setting: (dye: Cy3 (3' terminal)) 0.69 ± 0.031; (dye: Cy5 (3' terminal)) 0.521 ± 0.062.
In the case of “TTTTTTCATCATCATGATGATTTTTTTTTTTTTTTGGGCC [CCGGG]”, the background-corrected fluorescence reads like this: (dye: Cy3 (3' terminal)) 0.517 ± 0.031; (dye: Cy5 (3' terminal)) 0.367 ± 0.032.
Consider “TTTTTTCATCATCATGATGCTTTTTTTTTTTTTTTGGGCA [ACGGG]”, for which the background-corrected fluorescence is, setting by setting: (dye: Cy3 (3' terminal)) 0.565 ± 0.022; (dye: Cy5 (3' terminal)) 0.505 ± 0.024.
Turning to “TTTTTTCATCATCATGCGCATTTTTTTTTTTTTTTGGGAT [TAGGG]”, the background-corrected fluorescence came out at 0.617 ± 0.027 (dye: Cy3 (3' terminal)) and 0.506 ± 0.024 (dye: Cy5 (3' terminal)).
As to “TTTTTTCATCATCATGCTCATTTTTTTTTTTTTTTGGGAG [GAGGG]”, the background-corrected fluorescence by setting is: (dye: Cy3 (3' terminal)) 0.614 ± 0.037; (dye: Cy5 (3' terminal)) 0.478 ± 0.026.
As to “TTTTTTCATCATCATGCTGATTTTTTTTTTTTTTTGGGAC [CAGGG]”, the background-corrected fluorescence amounted to 0.536 ± 0.029 (dye: Cy3 (3' terminal)) and 0.401 ± 0.025 (dye: Cy5 (3' terminal)).
As for “TTTTTTCATCATCATGCTGCTTTTTTTTTTTTTTTGGGAA [AAGGG]”, the background-corrected fluorescence was 0.649 ± 0.032 (dye: Cy3 (3' terminal)) and 0.596 ± 0.068 (dye: Cy5 (3' terminal)).
On the same counts, the results for “TTTTTTCATCATGAGCAGCATTTTTTTTTTTTTTTGGCTT [TTCGG]” are 0.558 ± 0.029 and 0.405 ± 0.023.
On the same counts, the results for “TTTTTTCATCATGAGCATCATTTTTTTTTTTTTTTGGCTG [GTCGG]” are 0.469 ± 0.016 and 0.364 ± 0.018.
“TTTTTTCATCATGAGCATGATTTTTTTTTTTTTTTGGCTC [CTCGG]”: the background-corrected fluorescence stood at 0.425 ± 0.028 (dye: Cy3 (3' terminal)) and 0.337 ± 0.05 (dye: Cy5 (3' terminal)).
“TTTTTTCATCATGAGCATGCTTTTTTTTTTTTTTTGGCTA [ATCGG]”: the background-corrected fluorescence reads like this: (dye: Cy3 (3' terminal)) 0.483 ± 0.016; (dye: Cy5 (3' terminal)) 0.42 ± 0.028.
On the same counts, the results for “TTTTTTCATCATGATCAGCATTTTTTTTTTTTTTTGGCGT [TGCGG]” are 0.643 ± 0.035 and 0.558 ± 0.057.
For the sequence “TTTTTTCATCATGATCATCATTTTTTTTTTTTTTTGGCGG”, the background-corrected fluorescence (dye: Cy3 (3' terminal)) stood at 0.649 ± 0.014 and the background-corrected fluorescence (dye: Cy5 (3' terminal)) came to 0.604 ± 0.054.
Turning to “TTTTTTCATCATGATCATGATTTTTTTTTTTTTTTGGCGC [CGCGG]”, the background-corrected fluorescence was 0.627 ± 0.028 (dye: Cy3 (3' terminal)) and 0.551 ± 0.064 (dye: Cy5 (3' terminal)).
With “TTTTTTCATCATGATCATGCTTTTTTTTTTTTTTTGGCGA [AGCGG]”, the background-corrected fluorescence reads like this: (dye: Cy3 (3' terminal)) 0.714 ± 0.035; (dye: Cy5 (3' terminal)) 0.618 ± 0.07.
With “TTTTTTCATCATGATGAGCATTTTTTTTTTTTTTTGGCCT [TCCGG]”, the background-corrected fluorescence is 0.4958 ± 0.0048 (dye: Cy3 (3' terminal)) and 0.386 ± 0.035 (dye: Cy5 (3' terminal)).
Consider “TTTTTTCATCATGATGATCATTTTTTTTTTTTTTTGGCCG [GCCGG]”, for which the background-corrected fluorescence (dye: Cy3 (3' terminal)) turned out to be 0.597 ± 0.02 and the background-corrected fluorescence (dye: Cy5 (3' terminal)) worked out at 0.449 ± 0.043.
Take “TTTTTTCATCATGATGATGATTTTTTTTTTTTTTTGGCCC [CCCGG]”: the background-corrected fluorescence came to 0.387 ± 0.028 (dye: Cy3 (3' terminal)) and 0.312 ± 0.028 (dye: Cy5 (3' terminal)).
Taken in the same sequence, the figures for “TTTTTTCATCATGATGATGCTTTTTTTTTTTTTTTGGCCA [ACCGG]” were 0.518 ± 0.025 and 0.425 ± 0.025.
As to “TTTTTTCATCATGATGCGCATTTTTTTTTTTTTTTGGCAT [TACGG]”, the background-corrected fluorescence (dye: Cy3 (3' terminal)) was 0.603 ± 0.011 and the background-corrected fluorescence (dye: Cy5 (3' terminal)) is 0.406 ± 0.025.
Take “TTTTTTCATCATGATGCTCATTTTTTTTTTTTTTTGGCAG [GACGG]”: the background-corrected fluorescence runs as follows: (dye: Cy3 (3' terminal)) 0.527 ± 0.028; (dye: Cy5 (3' terminal)) 0.426 ± 0.017.
Consider “TTTTTTCATCATGATGCTGATTTTTTTTTTTTTTTGGCAC [CACGG]”, for which the background-corrected fluorescence is 0.436 ± 0.03 (dye: Cy3 (3' terminal)) and 0.336 ± 0.03 (dye: Cy5 (3' terminal)).
In turn, “TTTTTTCATCATGATGCTGCTTTTTTTTTTTTTTTGGCAA [AACGG]” showed a background-corrected fluorescence (dye: Cy3 (3' terminal)) of 0.5847 ± 0.005 and a background-corrected fluorescence (dye: Cy5 (3' terminal)) of 0.504 ± 0.041.
Consider “TTTTTTCATCATGCGCAGCATTTTTTTTTTTTTTTGGATT [TTAGG]”, for which the background-corrected fluorescence reads like this: (dye: Cy3 (3' terminal)) 0.584 ± 0.031; (dye: Cy5 (3' terminal)) 0.41 ± 0.061.
On the same counts, the results for “TTTTTTCATCATGCGCATCATTTTTTTTTTTTTTTGGATG [GTAGG]” are 0.533 ± 0.031 and 0.388 ± 0.026.
With “TTTTTTCATCATGCGCATGATTTTTTTTTTTTTTTGGATC [CTAGG]”, the background-corrected fluorescence reads like this: (dye: Cy3 (3' terminal)) 0.445 ± 0.019; (dye: Cy5 (3' terminal)) 0.35 ± 0.055.
As for “TTTTTTCATCATGCGCATGCTTTTTTTTTTTTTTTGGATA [ATAGG]”, the background-corrected fluorescence came out at 0.582 ± 0.026 (dye: Cy3 (3' terminal)) and 0.479 ± 0.045 (dye: Cy5 (3' terminal)).
